Experimental data from paper PMC4254994 (PLoS ONE, 2014).

Biological target: the molecule itself
Assay: SEC

B1: Bacterial proteasome activator Bpa (Rv3780) of Mycobacterium tuberculosis (natural protein)
chain: MVIGLSTGSDDDDVEVIGGVDPRLIAVQENDSDESSLTDLVEQPAKVMRIGTMIKQLLEEVRAAPLDEASRNRLRDIHATSIRELEDGLAPELREELDRLTLPFNEDAVPSDAELRIAQAQLVGWLEGLFHGIQTALFAQQMAARAQLQQMRQGALPPGVGKSGQHGHGTGQYL
  stoichiometry N: ~6
